{"source": "patent US20230340151A1", "about": "(Pfizer, published 2023)", "binders": {"B1": {"name": "GUCY2C-1608 (bispecific antibody)", "chain 1": "DIQLTQSPSSLSASVGDRVTITCRASESVDYYGSSLLQWYQQKPGKAPKLLIYAASKLASGVPSRFSGSGSGTDFTLTISSLQPEDFATYYCQQTRKAYTFGQGTKLEIKGGGSGGGGEVQLVESGGGLVQPGGSLRLSCAASGFTFSDYYMTWVRQAPGKGLEWVAFIRNQARGYTSDHNPSVKGRFTISRDNAKNSLYLQMNSLRAEDTAVYYCARDRPSYYVLDYWGQGTTVTVSSGCPPCPAPEAAGAPSVFLFPPKPKDTLMISRTPEVTCVVVDVSHEDPEVKFNWYVDGVEVHNAKTKPREEQYNSTYRVVSVLTVLHQDWLNGKEYKCKVSNKALPAPIEKTISKAKGQPREPQVCTLPPSREEMTKNQVSLWCLVKGFYPSDIAVEWESNGQPENNYKTTPPVLDSDGSFFLYSKLTVDKSRWQQGNVFSCSVMHEALHNHYTQKSLSLSPG", "chain 2": "DIQMTQSPSSLSASVGDRVTITCTSSQSLFNVRSQKNYLAWYQQKPGKAPKLLIYWASTRESGVPSRFSGSGSGTDFTLTISSLQPEDFATYYCKQSYDLFTFGGGTKVEIKGGGGSGGGGEVQLVESGGGLVQPGGSLRLSCAASGFTFSSYWMHWVRQAPGKGLEWIGEIKPSNELTNVHEKFKDRFTISVDKAKNSAYLQMNSLRAEDTAVYYCTRTITTTEGYWFFDVWGQGTLVTVSSGCPPCPAPEAAGAPSVFLFPPKPKDTLMISRTPEVTCVVVDVSHEDPEVKFNWYVDGVEVHNAKTKPREEQYNSTYRVVSVLTVLHQDWLNGKEYKCKVSNKALPAPIEKTISKAKGQPREPQVYTLPPCREEMTKNQVSLSCAVKGFYPSDIAVEWESNGQPENNYKTTPPVLDSDGSFFLVSKLTVDKSRWQQGNVFSCSVMHEALHNHYTQKSLSLSPG", "notes": "also called GUCY2c CD3 bispecific"}}, "key": {"[1]": {"target": "T1, Human GUCY2c on tumor cells (T84, HT55) (human, UniProt P25092 24-1073)", "T1 construct": "Endogenous receptor; also called GUCY2c expressing cell lines; T84 cells expressing human GUCY2c", "T1 sequence (P25092 24-1073 limits assumed)": "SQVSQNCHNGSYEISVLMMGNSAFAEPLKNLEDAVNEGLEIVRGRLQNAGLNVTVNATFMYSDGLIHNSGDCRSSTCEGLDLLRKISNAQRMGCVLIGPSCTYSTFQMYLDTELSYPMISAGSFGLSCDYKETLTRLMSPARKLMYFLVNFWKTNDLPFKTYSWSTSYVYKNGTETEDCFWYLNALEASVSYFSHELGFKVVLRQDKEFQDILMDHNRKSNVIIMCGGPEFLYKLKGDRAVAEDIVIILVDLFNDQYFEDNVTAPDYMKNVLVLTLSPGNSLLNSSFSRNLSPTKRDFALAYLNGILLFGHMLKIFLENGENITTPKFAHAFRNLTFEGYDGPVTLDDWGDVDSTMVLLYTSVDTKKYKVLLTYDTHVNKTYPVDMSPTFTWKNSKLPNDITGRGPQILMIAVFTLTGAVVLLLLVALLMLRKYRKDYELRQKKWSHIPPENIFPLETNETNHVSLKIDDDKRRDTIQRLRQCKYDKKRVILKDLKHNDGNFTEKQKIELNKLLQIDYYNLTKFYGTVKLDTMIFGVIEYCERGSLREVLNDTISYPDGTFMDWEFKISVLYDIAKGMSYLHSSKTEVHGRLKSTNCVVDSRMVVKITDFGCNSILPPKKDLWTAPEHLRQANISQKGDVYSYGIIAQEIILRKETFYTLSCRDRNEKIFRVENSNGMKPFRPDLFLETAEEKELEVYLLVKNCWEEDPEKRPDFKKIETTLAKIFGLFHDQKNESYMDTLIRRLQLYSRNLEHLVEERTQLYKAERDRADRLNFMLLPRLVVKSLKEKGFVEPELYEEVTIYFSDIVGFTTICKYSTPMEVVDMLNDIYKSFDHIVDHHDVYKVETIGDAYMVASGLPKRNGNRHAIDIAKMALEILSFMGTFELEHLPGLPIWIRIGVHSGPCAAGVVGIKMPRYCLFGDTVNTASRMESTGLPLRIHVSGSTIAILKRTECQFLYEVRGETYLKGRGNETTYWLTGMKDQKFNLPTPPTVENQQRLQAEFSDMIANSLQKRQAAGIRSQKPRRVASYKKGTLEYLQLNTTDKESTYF", "experiment": "flow cytometry titration on T84 tumor cells (PE-A Geo Mean against Ab in nM)"}, "[2]": {"target": "T2, Cynomolgus GUCY2C-ECD Cleaved (cynomolgus, UniProt P25092 24-430 (human entry))", "T2 construct": "also called CyGUCY2C", "T2 chain": "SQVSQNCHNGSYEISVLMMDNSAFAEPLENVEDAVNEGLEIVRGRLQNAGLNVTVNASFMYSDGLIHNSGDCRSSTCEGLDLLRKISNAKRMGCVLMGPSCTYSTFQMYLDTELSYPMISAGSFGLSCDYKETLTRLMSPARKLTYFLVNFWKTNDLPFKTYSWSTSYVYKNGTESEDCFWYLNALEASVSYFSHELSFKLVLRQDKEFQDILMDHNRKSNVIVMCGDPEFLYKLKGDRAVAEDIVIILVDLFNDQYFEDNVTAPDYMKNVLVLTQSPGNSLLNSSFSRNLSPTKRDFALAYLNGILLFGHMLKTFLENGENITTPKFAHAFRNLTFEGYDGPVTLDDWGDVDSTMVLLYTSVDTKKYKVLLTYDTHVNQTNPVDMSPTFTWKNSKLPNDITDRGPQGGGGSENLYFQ", "experiment": "direct DELFIA, 60 C"}, "Human CD3 epsilon-delta [3]": {"target": "T3, Human CD3 epsilon-delta (human)", "T3 construct": "Single-chain epsilon-linker-delta with His6; also called huCD3", "T3 chain": "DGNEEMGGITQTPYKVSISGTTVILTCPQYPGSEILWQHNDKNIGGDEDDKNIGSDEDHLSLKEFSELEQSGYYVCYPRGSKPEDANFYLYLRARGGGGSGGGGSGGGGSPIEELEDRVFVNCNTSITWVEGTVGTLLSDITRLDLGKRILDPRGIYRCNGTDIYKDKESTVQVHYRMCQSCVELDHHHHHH", "experiment": "SPR, CD3 captured by anti-His, printed 25 C (Table 33C)"}, "[4]": {"target": "T4, Cynomolgus CD3 epsilon-delta (cynomolgus)", "T4 chain": "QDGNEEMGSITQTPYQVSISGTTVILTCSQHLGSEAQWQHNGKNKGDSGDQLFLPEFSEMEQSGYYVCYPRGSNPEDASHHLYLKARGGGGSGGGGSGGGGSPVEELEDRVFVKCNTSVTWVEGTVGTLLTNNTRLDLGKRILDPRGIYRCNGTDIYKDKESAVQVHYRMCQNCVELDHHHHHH", "experiment": "SPR, CD3 captured by anti-His, printed 25 C (Table 33F)"}, "[5]": {"target": "T2, Cynomolgus GUCY2C-ECD Cleaved", "experiment": "SPR, GUCY2c directly immobilized, 25 C"}, "[6]": {"target": "T5, Murine GUCY2C-ECD cleaved (mouse, UniProt Q3UWA6 20-433)", "T5 sequence": "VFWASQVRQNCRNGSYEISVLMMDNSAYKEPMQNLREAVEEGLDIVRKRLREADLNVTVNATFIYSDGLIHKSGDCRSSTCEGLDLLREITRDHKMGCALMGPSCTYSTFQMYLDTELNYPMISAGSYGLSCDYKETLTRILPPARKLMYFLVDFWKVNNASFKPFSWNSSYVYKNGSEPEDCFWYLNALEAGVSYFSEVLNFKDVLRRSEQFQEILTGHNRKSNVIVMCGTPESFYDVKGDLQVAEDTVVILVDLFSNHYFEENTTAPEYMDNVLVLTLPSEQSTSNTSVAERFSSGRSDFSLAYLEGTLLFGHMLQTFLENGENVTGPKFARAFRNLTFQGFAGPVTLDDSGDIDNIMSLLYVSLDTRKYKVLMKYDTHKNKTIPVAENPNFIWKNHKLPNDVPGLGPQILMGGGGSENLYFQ", "experiment": "SPR, GUCY2c directly immobilized, 37 C"}, "Human CD3 epsilon-delta [7]": {"target": "T3, Human CD3 epsilon-delta", "experiment": "SPR, recombinant human CD3"}, "[8]": {"target": "T6, Human CD3 on naive human T cells (human, UniProt P07766 23-207)", "experiment": "cell-based or functional assay"}, "[9]": {"target": "T1, Human GUCY2c on tumor cells (T84, HT55)", "experiment": "cell-based or functional assay"}, "[10]": {"target": "T1, Human GUCY2c on tumor cells (T84, HT55)", "experiment": "cell-based or functional assay", "remark": "listed apart in the source"}, "[11]": {"target": "CID1942 (human GUCY2c point mutant) (human)", "experiment": "flow cytometry on cells displaying the construct"}, "[12]": {"target": "T5, Murine GUCY2C-ECD cleaved", "experiment": "SPR, GUCY2c directly immobilized, 25 C"}, "[13]": {"target": "T6, Human CD3 on naive human T cells", "experiment": "flow cytometry titration on naive human T cells (PE-A Geo Mean against concentration in nM)"}, "[14]": {"target": "T4, Cynomolgus CD3 epsilon-delta", "experiment": "SPR, CD3 captured by anti-His, 25 C"}, "[15]": {"target": "T7, Human GUCY2C full length (SEQ ID NO: 224), recombinant protein (human, UniProt P25092 24-430, limits assumed)", "T7 construct": "also called huGUCY2C; biotinylated human GUCY2c", "T7 sequence (P25092 24-430 F281L limits assumed)": "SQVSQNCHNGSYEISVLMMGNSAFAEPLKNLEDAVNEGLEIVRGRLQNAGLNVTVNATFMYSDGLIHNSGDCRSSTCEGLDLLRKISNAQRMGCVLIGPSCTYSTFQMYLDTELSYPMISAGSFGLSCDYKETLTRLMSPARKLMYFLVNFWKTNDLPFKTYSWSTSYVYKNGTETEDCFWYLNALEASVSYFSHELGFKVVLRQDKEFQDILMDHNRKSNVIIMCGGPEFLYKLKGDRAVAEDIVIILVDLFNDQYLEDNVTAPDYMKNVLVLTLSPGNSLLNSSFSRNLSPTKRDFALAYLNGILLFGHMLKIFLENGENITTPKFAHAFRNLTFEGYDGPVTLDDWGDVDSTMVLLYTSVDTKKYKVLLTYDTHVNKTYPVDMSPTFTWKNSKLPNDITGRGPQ", "experiment": "SPR, GUCY2c directly immobilized, 25 C"}, "[16]": {"target": "T7, Human GUCY2C full length (SEQ ID NO: …)", "experiment": "SPR, GUCY2c directly immobilized, 37 C"}, "Human CD3 epsilon-delta [17]": {"target": "T3, Human CD3 epsilon-delta", "experiment": "SPR, CD3 captured by anti-His, 25 C"}}, "note": "Like-named read-outs stand apart in the source and are kept apart here.", "data": [{"binder": "B1", "values": [{"measurement": "Kd", "setting": "[1]", "result": 0.62, "unit": "nM"}, {"measurement": "EC50", "setting": "[2]", "result": 49.9, "unit": "nM"}, {"measurement": "Kd", "setting": "Human CD3 epsilon-delta [3]", "result": 124, "unit": "nM"}, {"measurement": "koff", "setting": "Human CD3 epsilon-delta [3]", "result": 0.09, "unit": "s⁻¹"}, {"measurement": "kon", "setting": "Human CD3 epsilon-delta [3]", "result": 744000, "unit": "M⁻¹ s⁻¹"}, {"measurement": "Kd", "setting": "[4]", "result": 130, "unit": "nM"}, {"measurement": "koff", "setting": "[4]", "result": 0.0665, "unit": "s⁻¹"}, {"measurement": "kon", "setting": "[4]", "result": 514000, "unit": "M⁻¹ s⁻¹"}, {"measurement": "Kd", "setting": "[5]", "result": 3.01, "unit": "nM"}, {"measurement": "koff", "setting": "[5]", "result": 0.000417, "unit": "s⁻¹"}, {"measurement": "kon", "setting": "[5]", "result": 138000, "unit": "M⁻¹ s⁻¹"}, {"measurement": "Kd", "setting": "[6]", "result": 90.2, "unit": "nM"}, {"measurement": "koff", "setting": "[6]", "result": 0.0116, "unit": "s⁻¹"}, {"measurement": "kon", "setting": "[6]", "result": 129000, "unit": "M⁻¹ s⁻¹"}, {"measurement": "Kd", "setting": "Human CD3 epsilon-delta [7]", "result": 128, "unit": "nM"}, {"measurement": "In vitro Cytotoxicity (nM), T-cell retargeting assay", "setting": "[8]", "result": 0.772, "unit": "nM"}, {"measurement": "T84 tumor cell EC50 (T cell cytotoxicity, E:T 5:1)", "setting": "[9]", "result": 0.19, "unit": "nM"}, {"measurement": "T84 tumor cell EC50 (T cell cytotoxicity, E:T 5:1)", "setting": "[10]", "result": 0.19, "unit": "nM"}, {"measurement": "binding result", "setting": "[11]", "result": "binds"}, {"measurement": "Kd", "setting": "[12]", "result": 17.3, "unit": "nM"}, {"measurement": "koff", "setting": "[12]", "result": 0.00157, "unit": "s⁻¹"}, {"measurement": "kon", "setting": "[12]", "result": 91200, "unit": "M⁻¹ s⁻¹"}, {"measurement": "Kd", "setting": "[13]", "result": 35.4, "unit": "nM"}, {"measurement": "Kd", "setting": "[14]", "result": 24.1, "unit": "nM"}, {"measurement": "koff", "setting": "[14]", "result": 0.00916, "unit": "s⁻¹"}, {"measurement": "kon", "setting": "[14]", "result": 381000, "unit": "M⁻¹ s⁻¹"}, {"measurement": "Kd", "setting": "[15]", "result": 7.47, "unit": "nM"}, {"measurement": "koff", "setting": "[15]", "result": 0.000758, "unit": "s⁻¹"}, {"measurement": "kon", "setting": "[15]", "result": 101000, "unit": "M⁻¹ s⁻¹"}, {"measurement": "Kd", "setting": "[16]", "result": 13.5, "unit": "nM"}, {"measurement": "koff", "setting": "[16]", "result": 0.00217, "unit": "s⁻¹"}, {"measurement": "kon", "setting": "[16]", "result": 161000, "unit": "M⁻¹ s⁻¹"}, {"measurement": "Kd", "setting": "Human CD3 epsilon-delta [17]", "result": 24, "unit": "nM"}, {"measurement": "koff", "setting": "Human CD3 epsilon-delta [17]", "result": 0.00999, "unit": "s⁻¹"}, {"measurement": "kon", "setting": "Human CD3 epsilon-delta [17]", "result": 418000, "unit": "M⁻¹ s⁻¹"}]}]}
